Reference: patent US20190077860A1 (EISAI R AND D MANAGEMENT, published 2019)
Positions count from the first letter of the chain named. Names and notes keep the numbering of the source.

T1: human EphA3 extracellular region-SEAP-His protein (human, UniProt P29320 21-541)
T1 construct: extracellular domain; also called hEphA3-SEAP-His
T1 sequence (looked up): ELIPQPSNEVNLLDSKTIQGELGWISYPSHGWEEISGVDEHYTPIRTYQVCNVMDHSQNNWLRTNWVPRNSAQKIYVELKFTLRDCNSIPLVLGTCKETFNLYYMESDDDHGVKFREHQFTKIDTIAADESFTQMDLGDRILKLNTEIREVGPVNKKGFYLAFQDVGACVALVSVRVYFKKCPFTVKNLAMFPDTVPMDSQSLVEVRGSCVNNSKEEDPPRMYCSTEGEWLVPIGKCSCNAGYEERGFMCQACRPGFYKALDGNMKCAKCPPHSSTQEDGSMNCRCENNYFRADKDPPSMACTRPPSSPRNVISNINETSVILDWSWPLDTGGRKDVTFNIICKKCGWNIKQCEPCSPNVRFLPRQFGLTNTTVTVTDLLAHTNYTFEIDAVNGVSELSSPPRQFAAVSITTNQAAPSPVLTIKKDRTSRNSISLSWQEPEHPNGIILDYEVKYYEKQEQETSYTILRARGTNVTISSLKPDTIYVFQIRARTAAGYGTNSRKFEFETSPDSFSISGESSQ

T2: human EphA8 extracellular region-SEAP-His protein (human, UniProt P29322 28-542)
T2 construct: extracellular domain; also called hEphA8-SEAP-His
T2 sequence (looked up): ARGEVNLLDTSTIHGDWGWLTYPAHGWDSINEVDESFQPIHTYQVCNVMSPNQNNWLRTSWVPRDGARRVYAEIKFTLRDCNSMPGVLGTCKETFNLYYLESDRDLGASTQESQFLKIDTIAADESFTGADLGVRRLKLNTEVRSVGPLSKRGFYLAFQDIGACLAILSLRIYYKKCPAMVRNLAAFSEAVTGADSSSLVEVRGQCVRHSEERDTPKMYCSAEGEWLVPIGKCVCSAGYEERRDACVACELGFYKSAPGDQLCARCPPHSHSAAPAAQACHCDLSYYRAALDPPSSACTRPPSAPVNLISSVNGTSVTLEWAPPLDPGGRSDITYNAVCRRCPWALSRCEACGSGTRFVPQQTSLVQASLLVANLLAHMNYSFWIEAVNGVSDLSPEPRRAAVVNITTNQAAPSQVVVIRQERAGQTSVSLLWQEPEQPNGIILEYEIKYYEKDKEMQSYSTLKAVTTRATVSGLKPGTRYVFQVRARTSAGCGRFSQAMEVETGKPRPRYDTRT

T3: human EphB2 extracellular region-SEAP-His protein (human, UniProt P29323 19-543)
T3 construct: extracellular domain; also called hEphB2-SEAP-His
T3 sequence (looked up): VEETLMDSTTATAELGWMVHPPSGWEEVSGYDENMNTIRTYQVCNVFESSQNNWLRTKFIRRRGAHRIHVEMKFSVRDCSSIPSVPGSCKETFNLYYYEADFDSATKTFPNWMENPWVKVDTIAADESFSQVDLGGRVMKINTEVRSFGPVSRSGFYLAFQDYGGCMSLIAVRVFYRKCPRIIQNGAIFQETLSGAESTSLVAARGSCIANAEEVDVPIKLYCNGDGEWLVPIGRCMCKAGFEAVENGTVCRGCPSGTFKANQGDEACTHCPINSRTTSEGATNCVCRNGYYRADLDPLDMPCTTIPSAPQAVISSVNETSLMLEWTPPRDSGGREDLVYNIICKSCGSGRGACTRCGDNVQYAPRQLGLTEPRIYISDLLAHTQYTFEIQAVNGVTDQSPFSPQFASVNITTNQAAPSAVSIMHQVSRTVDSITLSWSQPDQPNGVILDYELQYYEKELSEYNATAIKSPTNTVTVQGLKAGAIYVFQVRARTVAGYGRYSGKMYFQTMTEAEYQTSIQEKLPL

B1: humanized antibody No. 76 (antibody, human IgG1, kappa)
heavy: QVQLVQSGSELKKPGASVKVSCKASGYTFTDYSMHWVRQAPGQGLKWMGWINTETGEPTYAQGFTGRFVFSLDTSVSTAYLQISSLKAEDTAVYYCARIPLYYYGSRYWYFDVWGQGTTVTVSSASTKGPSVFPLAPSSKSTSGGTAALGCLVKDYFPEPVTVSWNSGALTSGVHTFPAVLQSSGLYSLSSVVTVPSSSLGTQTYICNVNHKPSNTKVDKRVEPKSCDKTHTCPPCPAPPAAAPSVFLFPPKPKDTLMISRTPEVTCVVVDVSHEDPEVQFNWYVDGVEVHNAKTKPREEQFNSTFRVVSVLTVVHQDWLNGKEYKCKVSNKGLPAPIEKTISKTKGQPREPQVYTLPPSREEMTKNQVSLTCLVKGFYPSDIAVEWESNGQPENNYKTTPPMLDSDGSFFLYSKLTVDKSRWQQGNVFSCSVMHEALHNHYTQKSLSLSPG
light: DIQMTQSPSSLSASVGDRVTITCRASENIYRNLAWYQQKPGKAPKLLVYAATNLADGVPSRFSGSGSGTDYTLTISSLQPEDFATYYCQHFWGTPWTFGQGTKVEIKRTVAAPSVFIFPPSDEQLKSGTASVVCLLNNFYPREAKVQWKVDNALQSGNSQESVTEQDSKDSTYSLSSTLTLSKADYEKHKVYACEVTHQGLSSPVTKSFNRGEC
notes: human Ig kappa; also called L1-4/HA2
B2: humanized antibody No. 67 (antibody, human IgG1, kappa)
heavy: B1 heavy with V2I
light: B1 light
notes: human Ig kappa; also called L1-4/HA4
B3: humanized antibody No. 69 (antibody, human IgG1, kappa)
heavy: B1 heavy with V2I, Q62D, G63D, T65K
light: B1 light
notes: human Ig kappa; also called L1-4/HK4
B4: humanized antibody No. 75 (antibody, human IgG1, kappa)
heavy: B1 heavy with K46E
light: B1 light
notes: constant region: human IgG1 CH1 and hinge, human IgG2 CH2 and CH3 with V234A, G237A, no C-terminal Lys; human Ig kappa; also called L1-4/HA1
B5: humanized antibody No. 77 (antibody, human IgG1, kappa)
heavy: B1 heavy with K46E, Q62D, G63D, T65K
light: B1 light
notes: human Ig kappa; also called L1-4/HK1
B6: humanized antibody No. 78 (antibody, human IgG1, kappa)
heavy: B1 heavy with Q62D, G63D, T65K
light: B1 light
notes: human Ig kappa; also called L1-4/HK2
B7: humanized antibody No. 81 (antibody, human IgG1, kappa)
heavy: B1 heavy with K46E
light: B1 light with V48L, P80S
notes: human Ig kappa; also called L1-5/HA1
B8: humanized antibody No. 82 (antibody, human IgG1, kappa)
heavy: B1 heavy
light: B1 light with V48L, P80S
notes: human Ig kappa; also called L1-5/HA2
B9: humanized antibody No. 83 (antibody, human IgG1, kappa)
heavy: B1 heavy with V2I
light: B1 light with V48L, P80S
notes: human Ig kappa; also called L1-5/HA4
B10: humanized antibody No. 84 (antibody, human IgG1, kappa)
heavy: B1 heavy with K46E, Q62D, G63D, T65K
light: B1 light with V48L, P80S
notes: human Ig kappa; also called L1-5/HK1
B11: humanized antibody No. 85 (antibody, human IgG1, kappa)
heavy: B1 heavy with Q62D, G63D, T65K
light: B1 light with V48L, P80S
notes: human Ig kappa; also called L1-5/HK2
B12: humanized antibody No. 86 (antibody, human IgG1, kappa)
heavy: B1 heavy with V2I, Q62D, G63D, T65K
light: B1 light with V48L, P80S
notes: human Ig kappa; also called L1-5/HK4
B13: humanized antibody No. 87 (antibody, human IgG1, kappa)
heavy: B1 heavy with K46E
light: B1 light with K45Q, V48L
notes: human Ig kappa; also called L1-6/HA1
B14: humanized antibody No. 88 (antibody, human IgG1, kappa)
heavy: B1 heavy
light: B1 light with K45Q, V48L
notes: human Ig kappa; also called L1-6/HA2
B15: humanized antibody No. 89 (antibody, human IgG1, kappa)
heavy: B1 heavy with V2I
light: B1 light with K45Q, V48L
notes: human Ig kappa; also called L1-6/HA4
B16: humanized antibody No. 90 (antibody, human IgG1, kappa)
heavy: B1 heavy with K46E, Q62D, G63D, T65K
light: B1 light with K45Q, V48L
notes: human Ig kappa; also called L1-6/HK1
B17: humanized antibody No. 91 (antibody, human IgG1, kappa)
heavy: B1 heavy with Q62D, G63D, T65K
light: B1 light with K45Q, V48L
notes: human Ig kappa; also called L1-6/HK2
B18: humanized antibody No. 92 (antibody, human IgG1, kappa)
heavy: B1 heavy with V2I, Q62D, G63D, T65K
light: B1 light with K45Q, V48L
notes: human Ig kappa; also called L1-6/HK4
B19: humanized antibody No. 140 (antibody, human IgG2)
heavy: QVQLVQSGSELKKPGASVKVSCKASGYTFTDYSMHWVRQAPGQGLKWMGWINTETGEPTYAQGFTGRFVFSLDTSVSTAYLQISSLKAEDTAVYYCARIPLYYYGSRYWYFDVWGQGTTVTVSSASTKGPSVFPLAPSSRSTSESTAALGCLVKDYFPEPVTVSWNSGALTSGVHTFPAVLQSSGLYSLSSVVTVPSSNFGTQTYTCNVDHKPSNTKVDKTVERKSCVECPPCPAPPAAAPSVFLFPPKPKDTLMISRTPEVTCVVVDVSHEDPEVQFNWYVDGVEVHNAKTKPREEQFNSTFRVVSVLTVVHQDWLNGKEYKCKVSNKGLPAPIEKTISKTKGQPREPQVYTLPPSREEMTKNQVSLTCLVKGFYPSDIAVEWESNGQPENNYKTTPPMLDSDGSFFLYSKLTVDKSRWQQGNVFSCSVMHEALHNHYTQKSLSLSPG
light: B1 light
notes: as for B1
B20: humanized antibody No. 138 (antibody, human IgG2)
heavy: B19 heavy with V2I
light: B1 light
notes: as for B2

What was measured:
Assay in all cases: ELISA
[1] = target: T1, human EphA3 extracellular …
[2] = target: T2, human EphA8 extracellular …
[3] = target: T3, human EphB2 extracellular …

| Binder | A450 as % of hEphA4-SEAP-His [1] | A450 as % of hEphA4-SEAP-His [2] | A450 as % of hEphA4-SEAP-His [3] |
| --- | --- | --- | --- |
| B1 | 4.9% | 5.5% | 4.9% |
| B2 | 4.8% | 4.7% | 4.7% |
| B3 | 5.4% | 5.5% | 5.5% |
| B4 | 4.8% | 4.8% | 4.5% |
| B5 | 4.5% | 4.8% | 4.5% |
| B6 | 5.1% | 5.4% | 5.1% |
| B7 | 5% | 5.2% | 5% |
| B8 | 5.4% | 5.8% | 5.6% |
| B9 | 5.7% | 6% | 5.6% |
| B10 | 4.9% | 5.3% | 4.9% |
| B11 | 5.1% | 5.5% | 5.1% |
| B12 | 5.8% | 5.7% | 5.7% |
| B13 | 5.5% | 5.7% | 5.4% |
| B14 | 6% | 6.2% | 6% |
| B15 | 5.8% | 5.7% | 5.7% |
| B16 | 5.2% | 5.4% | 5.9% |
| B17 | 6.6% | 6.2% | 7% |
| B18 | 6.5% | 6.7% | 6.6% |
| B19 | 5.5% | 5.4% | 5.3% |
| B20 | 4.9% | 5.4% | 5.2% |
